{"source": "paper PMC5826802", "proteins": {"B1": {"name": "PARP15 (Homo sapiens) (protein)", "chain": "NLPEHWTDMNHQLFCMVQLEPGQSEYNTIKDKFTRTCSSYAIEKIERIQNAFLWQSYQVKKRQMDIKNDHKNNERLLFHGTDADSVPYVNQHGFNRSCAGKNAVSYGKGTYFAVDASYSAKDTYSKPDSNGRKHMYVVRVLTGVFTKGRAGLVTPPPKNPHNPTDLFDSVTNNTRSPKLFVVFFDNQAYPEYLITFTA"}}, "substrate": "NC(=O)c1ccc[n+]([C@@H]2O[C@H](COP(=O)([O-])OP(=O)(O)OC[C@H]3O[C@@H](n4cnc5c(N)ncnc54)[C@H](O)[C@@H]3O)[C@@H](O)[C@H]2O)c1", "experiment": "Enzyme kinetics of PARP15-catalyzed automodification by MLISA", "type": "biochemical, human", "details": "other: 500 nM PARP15, NAD+ 5-400 μM, Michaelis-Menten fit; pH 7.4"}
{"protein": "B1", "values": [{"measurement": "Km", "result": "4.5 ± 2.9", "unit": "µM"}]}
